Assay results as given in patent publication US20210380703A1.
Numbering of substitutions follows the chain as printed.

Target: human Fc (human)
Assay: ELISA, negative control

B1: 368_A06 (antibody, V domains shown)
VH: EVQLLESGGGLVQPGGSLRLSCAASGFTFDSYSMHWVRQAPGKGLEWVAGINYNSGYKGYADSVKGRFTISRDNSKNTLYLQMNSLRAEDTAVYYCARAANWHDTHLDYWGQGTLVTVSS
VL: DIQMTQSPSSLSASVGDRVTITCRASQSILSYVNWYQQKPGKAPKLLIYAATSRHSGVPSRFSGSGSGTDFTLTISSLQPEDFATYYCQQSYNSPLTFGGGTKVEIK
An optical density of 0.483 OD was found for B1 in this work.

B2: 374_B03 (antibody, V domains shown)
VH: B1 VH with H35N, A49S, S55G, K58T, G59S, A99G, H106A
VL: B1 VL with S31T, V33L, L47V, H55A, N93D
An optical density of 0.166 OD was found for B2 in this work.

B3: 374_B05 (antibody, V domains shown)
VH: B1 VH with H35N, A49S, K58T, G59S, A99G, H106A
VL: B1 VL with L30V, V33L, N93E
An optical density of 0.168 OD was found for B3 in this work.

B4: 374_B08 (antibody, V domains shown)
VH: B1 VH with H35N, S55G, K58T, G59S, A99G, H106A
VL: B1 VL with L30V, N93E, S94L
An optical density of 0.188 OD was found for B4 in this work.

B5: 374_B10 (antibody, V domains shown)
VH: B1 VH with D30S, H35N, A49S, G50S, K58T, G59S, A99G
VL: B1 VL with S31T, L47V, R54L, H55A, N93D, S94T
An optical density of 0.17 OD was found for B5 in this work.

B6: 374_C01 (antibody, V domains shown)
VH: B1 VH with S33G, H35N, A49S, G59S, A99G, H106A
VL: B1 VL with S31T, V33L, H55A, N93E, S94T
An optical density of 0.167 OD was found for B6 in this work.

B7: 374_C09 (antibody, V domains shown)
VH: B1 VH with S33G, H35N, A49S, G50S, S55G, A99G
VL: B1 VL with L30V, V33L, L47V, H55A, N93E, S94L
An optical density of 0.154 OD was found for B7 in this work.

B8: 374_C12 (antibody, V domains shown)
VH: B1 VH with D30S, H35N, S55G, G59S, A99G, H106A
VL: B1 VL with S31T, V33L, L47V, H55A, Y92D
An optical density of 0.308 OD was found for B8 in this work.

B9: 374_D03 (antibody, V domains shown)
VH: B1 VH with H35N, S55G, G59S, A99G
VL: B1 VL with L30V, S31T, V33L, H55A, N93D, S94T
An optical density of 0.216 OD was found for B9 in this work.

B10: 374_D05 (antibody, V domains shown)
VH: B1 VH with H35N, A49S, K58T, A99G
VL: B1 VL with S31T, V33L, H55A, N93D, S94T
An optical density of 0.171 OD was found for B10 in this work.

B11: 374_D06 (antibody, V domains shown)
VH: B1 VH with D30S, H35N, A49S, S55G, K58T, G59S, A99G, H106A
VL: B1 VL with L47V, H55A, N93D
An optical density of 0.172 OD was found for B11 in this work.

B12: 368_A12 (antibody, V domains shown)
VH: B1 VH with A49S, G50S, H106A
VL: B1 VL with S31T, V33L, L47V, H55A, N93D
An optical density of 0.425 OD was found for B12 in this work.

B13: 374_D07 (antibody, V domains shown)
VH: B1 VH with H35N, A49S, G59S, A99G, H106A
VL: B1 VL with L30V, V33L, L47V, R54L, H55A
An optical density of 0.176 OD was found for B13 in this work.

B14: 374_D10 (antibody, V domains shown)
VH: B1 VH with D30S, S33G, G50S, S55G, K58T, G59S, A99G
VL: B1 VL with S31T, H55A, N93D, S94N
An optical density of 0.329 OD was found for B14 in this work.

B15: 374_E10 (antibody, V domains shown)
VH: B1 VH with D30S, H35N, A49S, S55G, G59S, A99G, H106A
VL: B1 VL with V33L, N93D
An optical density of 0.165 OD was found for B15 in this work.

B16: 374_E12 (antibody, V domains shown)
VH: B1 VH with D30S, H35N, A49S, S55G, G59S, A99G, H106A
VL: B1 VL with V33L, L47V, H55A, N93D, S94N
An optical density of 0.177 OD was found for B16 in this work.

B17: 374_F07 (antibody, V domains shown)
VH: B1 VH with H35N, G50S, S55G, K58T, A99G
VL: B1 VL with V33L, L47V, A51V, R54L, H55A, N93E
An optical density of 0.176 OD was found for B17 in this work.

B18: 374_F08 (antibody, V domains shown)
VH: B1 VH with H35N, A49S, S55G, G59S, A99G, H106A
VL: B1 VL with S31T, L47V, A51V, H55A, N93D, S94T
An optical density of 0.211 OD was found for B18 in this work.
